The assay has as its target T1, Sec3 (S. cerevisiae, UniProt P33332 1-1336).
T1 sequence: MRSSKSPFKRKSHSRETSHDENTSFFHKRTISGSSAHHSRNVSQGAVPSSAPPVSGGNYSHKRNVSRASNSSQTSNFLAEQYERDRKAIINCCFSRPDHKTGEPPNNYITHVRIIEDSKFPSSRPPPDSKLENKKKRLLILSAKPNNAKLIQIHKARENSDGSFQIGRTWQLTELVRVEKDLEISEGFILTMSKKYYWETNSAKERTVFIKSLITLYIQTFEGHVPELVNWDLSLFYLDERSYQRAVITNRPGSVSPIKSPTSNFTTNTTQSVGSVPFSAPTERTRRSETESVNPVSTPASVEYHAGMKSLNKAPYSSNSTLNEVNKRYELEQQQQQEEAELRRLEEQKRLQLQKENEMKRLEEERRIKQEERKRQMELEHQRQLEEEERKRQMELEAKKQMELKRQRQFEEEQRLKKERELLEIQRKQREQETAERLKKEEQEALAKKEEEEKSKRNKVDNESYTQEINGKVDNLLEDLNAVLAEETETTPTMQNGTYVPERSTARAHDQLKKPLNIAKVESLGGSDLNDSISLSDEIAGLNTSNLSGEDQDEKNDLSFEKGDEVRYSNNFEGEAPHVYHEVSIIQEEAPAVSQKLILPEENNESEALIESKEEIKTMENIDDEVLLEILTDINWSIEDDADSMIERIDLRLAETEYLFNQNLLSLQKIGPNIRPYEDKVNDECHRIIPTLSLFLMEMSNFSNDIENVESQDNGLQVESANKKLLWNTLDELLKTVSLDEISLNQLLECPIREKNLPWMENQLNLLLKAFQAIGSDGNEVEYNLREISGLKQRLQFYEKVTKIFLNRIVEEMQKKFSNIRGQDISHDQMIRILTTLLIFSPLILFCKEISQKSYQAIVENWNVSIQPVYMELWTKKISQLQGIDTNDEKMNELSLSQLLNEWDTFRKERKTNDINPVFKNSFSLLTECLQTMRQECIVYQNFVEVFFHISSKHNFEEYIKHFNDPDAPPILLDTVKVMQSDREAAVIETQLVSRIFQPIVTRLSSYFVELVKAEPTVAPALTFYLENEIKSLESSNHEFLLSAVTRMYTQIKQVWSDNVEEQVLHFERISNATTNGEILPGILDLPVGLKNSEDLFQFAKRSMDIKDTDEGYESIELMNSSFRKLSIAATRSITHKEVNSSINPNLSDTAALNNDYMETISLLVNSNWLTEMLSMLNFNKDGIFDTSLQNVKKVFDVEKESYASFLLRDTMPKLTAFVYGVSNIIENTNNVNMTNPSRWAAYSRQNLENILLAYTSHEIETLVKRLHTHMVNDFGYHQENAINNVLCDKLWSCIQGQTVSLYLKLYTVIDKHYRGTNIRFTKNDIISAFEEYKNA
Nature of the assay: […].

The values below come from PMC5971111 (Nature structural & molecular biology, 2018).

B1: Sec8 (natural protein)
chain: MDYLKPAQKGRRRGLSINSLSETQQSAMNSSLDHLQNDLNRINLQWNRILSDNTNPLELALAFLDDTSVGLGHRYEEFNQLKSQIGSHLQDVVNEHSQVFNTNVASYGKAVSSIMQAQEQTLNLKNCLKEANEKITTDKGSLQELNDNNLKYTKMIDVLVNIEELLQIPEKIEENIRKENFHQVQILLERGFILMNNKSLKTVEILKPINQQLELQEHLLFNNLIEEIHDIMYSKSNKTNFTRVTNNDIFKIISISHNGFTSLENYLYNIVNIDIMEHSKTINKNLEQFIHDQSLNKGNIMLQENAATQAPLAPSRNQENEGFNRIGFLLKTINNINKLPVAFNIITERAKEEIHNIIVKSTESIRSKHPSLLKMATSLKNDNHFGLPVQDILSIILRECFWEIFLKLLYAIQCHRAIFEMSNILQPTSSAKPAFKFNKIWGKLLDEIELLLVRYINDPELISSNNGSIKPINGATNNAPTLPKRKNPKIFSLEYNIEDNSSVKDQAFELKALLKDIFPGFSVSSNMDLDSIYVKDESFEQDEPLVPPSVFNMKVILDPFLLFTQSTSTIVPSVLTQNTISSLTFFDDYMNKSFLPKIQMTMDYLFTVEVESNNPYALELSDENHNIFKTALDFQRLFYNLLNVFNTANTFREKISYCILDLLNHFYNYYLGLFNSLIGTSDRHLTRKIITAWLQNGILMDQEQKILNGDETLFHEESIELFKEIPHFYQAGKGLSKSDLFNNLTLDTILQFSASVLWILNWLPGLKKAINIDEVSQEPMLDADRLRSSWTFSESMDLNYSNPSSSPNSLGNLKILLDDKASKKFDETIDGFKTLKFKLITILRFNIRALCIYDIGSFFQNTKIWNMDVGSIELDQNIASLISELRRTESKLKQQLPEKEKNSIFIGLDIVNNYALIKGAKSIKVLNHNGIKKMLRNVNVLQHAYRNLSSEPSKINMNVTMNFYSLCGSSEAELFEYIKDNELPHCSVEDLKTILRLQFSEEMHRQLKRQSTSSTKGSIKPSNKRYTEALEKLSNLEKEQSKEGARTKIGKLKSKLNAVHTANEK
On to B1, for which the binding result is given as “binds”.
